Data taken from paper PMC5095980.

Target: Human lactoferrin (human)
Assay: small angle neutron scattering (SANS); iron containing samples in solution, 7 °C: iron saturated Lf (L3770; 100 mM MES, 150 mM NaCl, D2O) at pD 5 and pD 7, and partially saturated Lf (L3770 in the EDTA buffer, pD 5); concentration series 2.5-50 mg/ml, form factor extrapolated to c = 0, aggregates modelled by a Guinier term added to the monomer form factor

Q: With Human lactoferrin (natural protein) as the substance, how does the stoichiometry N read?
A: 10 monomers
